Measured values taken from article PMC10042835, “Phytochrome B photobodies are comprised of phytochrome B and its primary and secondary interacting proteins” (Nature Communications, 2023).

Molecular target: T1, SBP-fused phyB (SBP-phyB), recombinant full-length phyB (Arabidopsis thaliana, UniProt P14713 1-1172, made in phycocyanobilin-producing LMG194 (chromophore); Pfr or Pr form set by a red or far-red light pulse)
T1 construct: phytochrome B (phyB), Arabidopsis thaliana, full length; pBAD-derived vector; the Pfr and Pr forms are told apart by the assay; also called phytochrome B; Pfr form; source: phycocyanobilin-producing E. coli LMG194, purified (Ni-NTA, Streptavidin sepharose)
T1 sequence (looked up): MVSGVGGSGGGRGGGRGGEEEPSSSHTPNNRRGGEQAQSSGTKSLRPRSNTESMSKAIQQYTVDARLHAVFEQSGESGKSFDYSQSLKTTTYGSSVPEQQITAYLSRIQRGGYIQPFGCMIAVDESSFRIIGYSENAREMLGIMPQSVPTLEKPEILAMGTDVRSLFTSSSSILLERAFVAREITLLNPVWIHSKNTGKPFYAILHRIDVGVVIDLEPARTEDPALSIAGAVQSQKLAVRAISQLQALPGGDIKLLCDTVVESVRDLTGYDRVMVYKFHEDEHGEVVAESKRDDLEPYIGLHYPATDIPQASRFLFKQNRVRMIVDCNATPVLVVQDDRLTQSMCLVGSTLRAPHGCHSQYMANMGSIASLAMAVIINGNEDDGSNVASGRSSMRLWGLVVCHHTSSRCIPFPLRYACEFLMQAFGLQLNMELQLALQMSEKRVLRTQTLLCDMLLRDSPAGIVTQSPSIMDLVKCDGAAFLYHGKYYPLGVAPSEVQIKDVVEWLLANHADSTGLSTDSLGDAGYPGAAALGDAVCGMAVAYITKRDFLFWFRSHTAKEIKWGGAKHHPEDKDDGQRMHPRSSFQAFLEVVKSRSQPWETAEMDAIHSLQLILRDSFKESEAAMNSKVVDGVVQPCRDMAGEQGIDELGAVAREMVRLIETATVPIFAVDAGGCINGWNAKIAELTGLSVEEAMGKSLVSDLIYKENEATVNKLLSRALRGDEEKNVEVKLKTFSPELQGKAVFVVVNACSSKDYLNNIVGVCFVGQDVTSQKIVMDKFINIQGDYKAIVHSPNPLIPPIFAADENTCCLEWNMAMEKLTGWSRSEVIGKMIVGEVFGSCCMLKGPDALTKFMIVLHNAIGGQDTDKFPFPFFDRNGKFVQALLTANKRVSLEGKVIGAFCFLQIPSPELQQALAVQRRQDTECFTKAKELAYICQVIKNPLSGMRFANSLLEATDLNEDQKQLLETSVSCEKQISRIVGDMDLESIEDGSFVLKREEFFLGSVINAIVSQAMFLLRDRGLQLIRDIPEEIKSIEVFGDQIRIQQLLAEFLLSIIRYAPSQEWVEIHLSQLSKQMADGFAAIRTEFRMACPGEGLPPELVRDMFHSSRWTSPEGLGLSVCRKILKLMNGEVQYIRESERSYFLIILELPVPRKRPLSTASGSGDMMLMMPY
Experiment: pull-down; GST fusions incubated with SBP-phyB in the Pfr form (red light pulse 25 μmol/m2/s, 10 min, before the incubation), glutathione resin; 25 mM HEPES, 150 mM KCl, 1 mM DTT, pH 7.40; green safety light
Settings: both partners purified

B1: GST-fused PIF4 (GST-PIF4) (natural protein, Arabidopsis thaliana, UniProt Q8W2F3 1-430, looked up)
chain: MEHQGWSFEENYSLSTNRRSIRPQDELVELLWRDGQVVLQSQTHREQTQTQKQDHHEEALRSSTFLEDQETVSWIQYPPDEDPFEPDDFSSHFFSTMDPLQRPTSETVKPKSSPEPPQVMVKPKACPDPPPQVMPPPKFRLTNSSSGIRETEMEQYSVTTVGPSHCGSNPSQNDLDVSMSHDRSKNIEEKLNPNASSSSGGSSGCSFGKDIKEMASGRCITTDRKRKRINHTDESVSLSDAIGNKSNQRSGSNRRSRAAEVHNLSERRRRDRINERMKALQELIPHCSKTDKASILDEAIDYLKSLQLQLQVMWMGSGMAAAAASAPMMFPGVQPQQFIRQIQSPVQLPRFPVMDQSAIQNNPGLVCQNPVQNQIISDRFARYIGGFPHMQAATQMQPMEMLRFSSPAGQQSQQPSSVPTKTTDGSRLDH
notes: source: E. coli BL21(DE3)-CodonPlus-RIL, purified (Ni-NTA, glutathione agarose); not shown: GST, N-terminal, kept
**Q.** Does B1 bind?
**A.** binds
